Data as given in a protein production outcome set (Wang et al. 2014).

test: label from the status in PepcDB records

Sequence	protein production
MSNIITYLKNNSNLTFDELALNDVDILCLNEFGYISFEKLINTTEMKSVLVCELYHEYLQTMAKSYSFMFTSQRHDLCQLMMTSKRFKNLTLSYYRAEISLEFEKQFAAMVFTIPNINYHQVVFRGTDANLIGWKEDFKLTYMREISAHRSAIKYLNTILPYFDKVVLSGHSKGGNLALYAAMFTKPDLKAKIDLIWLIDSPGLQKTLLPTTEYKTTKQKCIRLLPEESIVGMMLYSDIEPLIISSNARGILQHDVTTWEIQEPAILKTGTGLSLKSICFEKTFQQWMAELKSQERKLFFDLLFDSFLSSGVSSLDDFNLASRAKMMKAFHSFRELDDDKKRLFNKSLKLLVTIFWGAYHDNSRETK	failed
MSNLPLISVVIPTYGREEILRDSIVDVLNQDYPKYEVLVVDQSPKHKPEIETYLEEVAAAGKVKWFRLDWASLPGARNYAIRRASGEIILFIDDDVKLKPGFLAAHAKNYVQNPDVGSVAGRVFDRMKLGDSGGNLEIEYLPPEAMDPGVAWYHIDLVHTIKPQQVLTARGCNMSFRREIFTKHGLRFDERFRGSAVREESDFCLRLRQTGYKIWYDPEADLIHLGEETGGCHDISMRSLKYQFTFYHNHFLLGLKNLNFSQALRLYARLFDCHVLGRPPCHKSGSPIKIITRGIFYILGFFRALGSVIQSNWHDGQIYSRLDQESIIKSQESMVNS	failed
MSNNMQTVRESYEAFHRRDLPGVLAALAPDVRWTHPDGMSPYGLGGTKHGHDEVIAFIRHVPTHIAEMRLAPDEFIESGERIVVLGTRRVTAVNGRSATLKFVHVWRFENGRAVTFEDHFDTAEMIRLITA	not failed
MSNPLGELVKALEKLSFKPSDVRIYSLLLERGGMRVSEIARELDLSARFVRDRLKVLLKRGFVRREIVEKGWVGYIYSAEKPEKVLKEFKSSILGEIERIEKMFTD	not failed
MSNPQPEKVRVVVGDDHPLFREGVVRALSLSGSVNVVGEADDGAAALELIKAHLPDVALLDYRMPGMDGAQVAAAVRSYELPTRVLLISAHDEPAIVYQALQQGAAGFLLKDSTRTEIVKAVLDCAKGRDVVAPSLVGGLAGEIRQRAAPVAPVLSAREREVLNRIACGQSIPAIAAELYVAPSTVKTHVQRLYEKLGVSDRAAAVAEAMRQRLLD	not failed
MSNTTRQAGSQGSLDAFFKITQRGSNVRQEVLAGLTTFLAMVYSVIVVPSMLGKAGFPPTAVFVATCLVAGLGSLLMGLWANLPMAIGCAISLTAFTAFSLVLGQQISIPVALGAIFLMGVLFTIISVTGIRSWILRNLPLGVAHGTGIGIGLFLLIIAANGVGLVVKNPIDGLPVALGNFTSFPVIMSLLGLAATIGLEKRRVPGGILLVIVVISILGLIFDPNVKYAGFFALPSLTAADGSSLIFSLDIMGALQPLVLPSVLALVMTAVFDATGTIRAVAGQANLLDKDGQIINGGKALTADSVSSIFCSLVGTSPAAVYIESAAGTAAGGKTGLTATVVGVLFLLLLFVSPLAYLVPGYATAPALMYVGLLMLGNVSKLNFDDFVDAMSGLVCAVFIVLTCNIVTGIMLGFGALVLGRICSGEWRKLNIGTVIIAVALVAFYAGGWAL	failed
MSNVRVLATDLAFPEGPVVMPDGSVVLVEIRAQQLTRVWPDGRKEVVAKVPGGPNGAALGPDGKMYICNNGGFGWFPSRGTMMPGAPAPHEYIGGSIQRVDLQSGEVETLFDKCGEHPLKGPNDLVFDKHGGLWFTDLGKRRARDMDVGAAYYIKPGMTEITEQVFGTLPLNGIGLSPDEATMYAAETPTGRLWAFDLSGPGEVKPRDVIYRGEKGKPICGLGGYQMFDSLAVEASGNVCVATLVSGCISVIAPDGTLVEQVPTGDRVTTNIAFGGPDLKTAYITLSGKGELIAMDWSRPGLPLNFLNK	failed
MSNYEKVYIGTYTNGESRGIYSFNIISDSRKTTAPILSCEIENPTYLTFNMNNKTAYSVIKSGNLGGAASFYVDDRNNHLELLNCKFGYENPPERFSGKQPCYVSLDKTNSYLFSVNYHTSRVDVFPIRNDGSIDTVSSFVIHEGFGPNKERQETSHVHCAVTTPLNDFLCVVDLGTDKIVLYRFDDGILCRFNEFKLKPGCGPRHIIFHPNGKIAYIATELSSEVIVLKYSPLDGSFEELQYVSCLPTDYTGKNGSAAIHISRNSNYLYVSNRGHNSISCFHVDNSTGLLTLNSNTSTYGLSPRDFDLSSSGNLLIAANQDSSNLTIFSVDQVSGNLSKITSDIYVPNPVCVKFYHDKLEHHHHHH	failed
MSPEAKEAQDSRRNEMPEKKRAVLRKAIKLEWATIAWVLFSIVLVGVVAGQSQAMRSAWIEDMLSLVPPIAFLLASRISKAVATRKHPYGKHRSIAIGHQAAALALLIMGSLLIYEAVSALIKGERPPIGLAILFGHDVWSGWLMIGVMISVSIPMVIVGRVKINLAKDLHDKLLYADADMAKADWGTAVASTVGVLGIGLGFWWADAVAALVISASILRDGVINMKAAISDLGDGRAMTYDNSAPHPLNDDVEKAALEMHWVKHARARIRDQGRCFHTELFVEPVEGYTPAPEEITSLVKRIQNLDWKLQDVVASVVEKIDRFQAPS	failed
MSPFDTPRRLVAEALGTALLLAVVVGSGIMGERLSDGNIAIALLGNTLATGAALVVLIWVFGPISGAHFNPAVTLVAALRRELPLTLALAYPLAQILGGIAGVWTAHAMFGEPILQVSTKLRSGGDQAFAEVVATFGLLATILGVSRFRPESTPMAVGLYITAAYWFTASTSFANPAVTVARSLSDSFAGIAPASAPAFILAQLVGALSAAALFGWLLKTDTSR	failed
MSPFTGSAAPTPEWRHLRVEITDGVATVTLARPDKLNALTFEAYADLRDLLAELSRRRAVRALVLAGEGRGFCSGGDVDEIIGATLSMDTARLLDFNRMTGQVVRAVRECPFPVIAALHGVAAGAGAVLALAADFRVADPSTRFAFLFTRVGLSGGDMGAAYLLPRVVGLGHATRLLMLGDTVRAPEAERIGLISELTEEGRADEAARTLARRLADGPALAHAQTKALLTAELDMPLAAAVELDASTQALLMTGEDYAEFHAAFTEKRPPKWQGR	not failed
MSPPPAPNPIRDSLIARADALREGGAPAEARDLYRLVLDRHPGHGPALAGLGRILLGLGQPTAALESLGAAVAADPTRLDWLADLAVALAGARRPAEALSAAEGLPATAGALGFRADRLEELGRRDQAIALLDDALRRHPDEAELHRRQGVLLRRAGRAAQAIAPWRALVALRPGDAAAWSSLGAGLGESGLDEEAEKALRRAVALAADEPDWTYNLAHFLIERDRLEDALPLLDAAVARAPERAHYHTNLGVCRLGLGDIKGAIAAHRQALALDPDEPEARYDLAWALLLAGAWEEGWAAHEARWRMGRFTGRRAAGPAPTDWPMPLWDGQPLGPGRTLLLHAEQGFGDSLMMSRLIIPALARAGDAQGIIECPPSLVGLLAQSLGPALGPAVRVVAQAESPPAADAHLPLMSLPHRLGVDSETIPGPDRWLRAEPAPRPPSSPPRVGLVWAGDPGNRMDRLRSCPATALRPLFDRVKDAGLDIAWTGLQLGPPAADLPDLPAALAPGGDFAATARVVAALDLVIGVDTAVIHLAGGLGVETWVMLAYVPDYRWMMDRDDSPWYPSARLFRQSRRGDWRGVIAQVAAALTKRFG	failed
MSPVVIAVVGVVVLLVLLALVVVSRYKVAGPSEAFIVTGRRGKRSTDPETGRVFTDNSGQKVVVGGGVFVVPFVQQRFTLDLSSRHIPVAVRGAVTLRGVKANLEGVAIVKVGGTEDAIRAAAQRFLMQQDGIVGFTQEVLSGALRAIVGRMSVEDVIRDRAAFAGQVAEEAEASLSGQGLVLDAFQIQDITTEGSYLEDLGRPEAARAKQEADIAEAVARRAAEQARLKAEEEIAVAQRTLYLKQAEIKAETDQAEARANASGPLAEAARQQDILAEQEKVAERQAALKDRQLDTEVRKPADAQRYAAEQEAEARRVARVKQAEAERAAGIAAAQAEAERARLTGEGEKQRRSALADAVRLEGDAEAAAIGAKGAAEAEAMEKKADAFDRYGDAAVLQMLVEVLPQVVAKASEPLAAVDKMTVISTDGASRLTRTVADNVAQGMELLGSTTGVDLTSLLKGITAKEGITAKGEAGRATTENGKVEITDLEHHHHHH	not failed
MSQAISLNQSTWASKLKAMGPGILMATAAVGGSHIVSSTQAGGSYGWSLLLLVILANVFKYPFFRFGAEYTADTGKTLVEGYAEKGKLYLWIFFILNVFSAMVNTAGVAILCSAIIASAFPMIGLSITQWSLILVAIIWAMLLFGGYKLLDGMVKWIMSALTIATVLAVIIAAVKHPEYSSDFVEKTPWQMAALPFIVSLLGWMPAPIEISAINSLWSAEKRKTVNFNTEDALFDFNTGYIGTAILAVFFVALGALIQYPTGQAVEAASAKYISQFVGMYASVLGEWSRYLITFIAFLCIFGTVITVIDGYSRVNQESLRLLISQKEDNRKSLNIWMTITAIIGIVIIKFFAGQVSTMLRFAMIGSFLTTPFFALLNYALVTRENKNLPSWLKHLAIAGLIFLFGFAIFFIYALAIGKAG	failed
MSQATAKVNREVQAFLQDLKGKTIDHVFFVACGGSSAIMYPSKYVFDRESKSINSDLYSANEFIQRNPVQLGEKSLVILCSHSGNTPETVKAAAFARGKGALTIAMTFKPESPLAQEAQYVAQYDWGDEALAINTNYGVLYQIVFGTLQVLENNTKFEQAIEGLDQLQAVYEKALKQEADNAKQFAKAHEKESIIYTMASGANYGVAYSYSICILMEMQWIHSHAIHAGEYFHGPFEIIDESVPFIILLGLDETRPLEERALTFSKKYGKKLTVLDAASYDFTAIDDSVKGYLAPLVLNRVLRSYADELAEERNHPLSHRRYMWKVEY	not failed
MSQAVLATETNRRQLQQIISGLSDGVILIETDKARTLLWANEAALAMHGVSTVEQLGGNLREYARRYALRYRNNHPLGLDSYPINRVAAGETFSDVVVEVQAEIDGEPRHWVHRVRSMILEDRNGAPESLVLILSDATDWASAEQRFEKTFNANPAPAVICRLGDLRYIKVNQGFLEMTGYARDQVIGRSVYELDVLEDAEHKELAVERLGQGATIPQMQAELRLPEGGSKLVIVAGQPLDINDEDCMLFSFMDLEPRRKAEIALRQSEERFAKSFRLTPVPTLVCSAEQQIVDVNEAFLDTCGYSSEELLGKTVQDIGFIAEPQAAEQLFGRLEKSGNVMGLDLKVRKKGAEQVDCVAYADTVLIQDSPCYLLVLMDISERKRSELELVGAIEEVMRDASWFSQTLIEKLANVRNTRSAQAPAVTSAELTTREREVLGLIYQGLADKEIAAQLQLAPNTVRNHVATLYSKLDVHSRGEAIVWARERGLFAGSAG	failed
